B1: Hairpin Ribozyme (parent)
chain: GUCCUCUUUCACGUGCGCGUGAAAGAGAGAAGUGAACCAGAGAAACACACGUUGUGGUAUAUUACCUGGUA

Variants of: B1
Assay: self-cleavage, relative activity (ratio to wild type); higher = more cleavage; co-transcriptional

Variant	self-cleavage
U14C A23C	0.693
G15A U55C	0.225
U14G A39U	0.285
U14G U55G	0.273
G13U G57C	0.173
G13U G57U	0.202
U14C C65U	0.295
U14A A39G	0.345
U14G U63A	0.217
G15A G32U	0.0825
G15A G32A	0.145
G15A A41U	1.26
G15A A45G	0.17
U14A G69C	0.337
U14A G69U	0.205
U14A U55A	0.201
U14A U55C	0.206
U14A A22G	0.762
U14A A22U	0.715
G15A A24C	0.899
G15A A24G	0.963
G13C G29U	0.0913
U14G G25U	0.492
U14G G25C	0.312

Variant	self-cleavage
G13C G56A	0.137
U14A U53G	0.899
U14A U53C	1.07
U14G U62C	0.213
U14G G69C	0.238
U14G A31C	0.267
G15A A23C	0.877
G13C A61G	0.164
U14G C65U	0.316
G13U U70A	0.771
U14G U33G	0.127
U14G U33C	0.0267
U14G U33A	0.116
G13U C16G	0.655
U14A G25C	0.418
U14G C48A	0.165
G13U A44G	0.199
G13U A44C	0.0986
U14A G17A	1.03
U14A G17U	0.96
G13U G21C	0.431
G13U G21A	0.595
U14G A24G	0.747
G13U G40A	0.342

Variant	self-cleavage
U14G C46G	0.131
G13C A71U	0.41
U14G U70C	1.13
U14G U70G	0.659
G13C C37G	0.183
G15A G25C	0.491
U14A C66G	0.143
U14C A31G	0.737
U14A A59G	0.0952
U14A A30C	0.222
U14A A30U	0.156
U14A A30G	0.165
U14G G15C	0.864
U14A A43U	0.0759
G13U A45U	0.136
G13U G68U	0.243
G15A G17C	0.83
U14G A36G	1.11
U14G A28C	0.589
U14G A28G	1.15
U14C G25C	0.728
U14C G25A	0.734
U14C G54A	0.509
U14C G54U	0.541

Variant	self-cleavage
U14G U58A	0.753
U14A U60C	1.07
U14A U60A	0.987
U14G G40C	0.111
G13U A30C	0.166
U14A G34U	1.47
U14A A26C	0.817
U14A A49G	0.554
U14A A49C	0.117
U14C A71C	1.59
U14C A71G	1.24
U14C A64U	0.199
U14C A64C	0.257
U14G A41G	0.589
G13C U63C	0.111
G13C U63G	0.164
U14C C37A	0.245
U14C C37G	0.319
U14G G32U	0.107
U14G G32A	0.191
G15A C37G	0.312
G15A C37U	0.699
G15A C37A	0.388
G15A U52G	0.641

Variant	self-cleavage
U14A G51C	0.89
U14A G51A	0.957
U14A A35U	0.656
U14G C37G	0.276
U14G C37A	0.276
G15A A26C	0.93
U14C A36C	0.476
U14C A36U	0.844
U14C A36G	1.44
U14G A45G	0.0744
G13U U52G	0.623
G15A A59C	0.182
G15A A59U	0.213
U14A A41G	0.867
G13C U52G	0.76
G13C U52C	0.646
U14A G32U	0.108
U14A G32A	0.106
G13U C46A	0.193
U14C A30C	0.263
U14A U20C	1
U14A U20G	0.663
U14C G34C	1.5
G13C G51U	0.61

Variant	self-cleavage
G13C G34C	1.1
G13C G34U	1.1
G13U A36C	0.537
U14C U63G	0.0837
G13U G15U	0.941
G13U G42C	0.227
U14A G68U	0.307
U14A G68A	0.173
G13C C50A	0.137
G13C C50U	0.281
G13U G54A	0.518
G13U G51C	0.745
G13U G51U	0.887
G13U G32A	0.183
U14G G51C	0.734
G13U C38G	0.136
G13C G25U	0.436
G13C G25A	0.448
U14G U20A	0.866
U14G U20C	0.992
U14C G32U	0.138
U14C G32C	0.244
G15A C66U	0.35
U14C A39U	0.387

Variant	self-cleavage
U14G U67C	0.145
U14G U67A	0.186
G13C U70C	0.716
G13C U70A	0.475
G13U A22U	0.622
G13U A22C	0.533
G13U A24G	0.681
G13U G27U	0.215
G13U G27A	0.347
G13C C48U	0.108
G13U A71U	0.684
U14G A49U	0.0246
U14A U62C	0.257
U14A U62G	0.125
U14C G29A	0.0903
U14A G57C	0.132
U14A G57U	0.195
U14A U63A	0.162
G15A G51U	0.82
G15A G51C	0.79
G13U C50U	0.268
G13U G17U	0.712
G15A G68U	0.232

Source: the RNAGym collection of RNA variant scans (doi:10.7554/elife.80360)
